One block for each binder: values may come before it.
How the values were obtained:
[1] = molecular target: T1, wild-type PKG Iα (cGMP-dependent protein kinase type Iα, full length) (UniProt P00516 2-671); test: cell-based or functional assay
T1 sequence (looked up): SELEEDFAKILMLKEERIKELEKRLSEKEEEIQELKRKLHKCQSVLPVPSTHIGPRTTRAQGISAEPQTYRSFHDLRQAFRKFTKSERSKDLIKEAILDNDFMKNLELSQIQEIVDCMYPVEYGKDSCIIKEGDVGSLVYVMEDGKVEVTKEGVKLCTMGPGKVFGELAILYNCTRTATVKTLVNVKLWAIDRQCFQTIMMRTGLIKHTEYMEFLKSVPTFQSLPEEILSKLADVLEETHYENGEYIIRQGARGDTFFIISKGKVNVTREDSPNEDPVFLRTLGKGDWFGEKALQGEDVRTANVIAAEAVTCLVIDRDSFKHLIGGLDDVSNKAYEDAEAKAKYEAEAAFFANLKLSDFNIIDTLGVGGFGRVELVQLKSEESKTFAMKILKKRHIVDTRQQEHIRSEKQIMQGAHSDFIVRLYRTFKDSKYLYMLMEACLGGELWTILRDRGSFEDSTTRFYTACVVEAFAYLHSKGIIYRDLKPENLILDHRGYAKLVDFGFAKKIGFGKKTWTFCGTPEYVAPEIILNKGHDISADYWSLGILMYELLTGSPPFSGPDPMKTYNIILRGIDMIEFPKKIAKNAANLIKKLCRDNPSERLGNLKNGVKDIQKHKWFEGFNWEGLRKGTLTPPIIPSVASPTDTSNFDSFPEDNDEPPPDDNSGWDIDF

SW:329-349 = molecular target: T2, SW:329-349
T2 chain: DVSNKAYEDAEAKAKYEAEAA

SW:329-358 = molecular target: T3, SW:329-358
T3 chain: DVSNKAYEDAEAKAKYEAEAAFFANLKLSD

Ka (activation of PKG Iα, cGMP priming conditions) [1]: 500 µM
B1: SW:329-355 (peptide)
peptide: DVSNKAYEDAEAKAKYEAEAAFFANLK

Ka (activation of PKG Iα, kinase primed with 100 nM cGMP) [1]: 40 µM
shift of the activation profile on priming with 100 nM cGMP [1]: 20 fold
B2: SW:329-358 (peptide)
peptide: T3 chain

Ka (activation of PKG) [1]: 500 µM
activation relative to activation associated with cGMP [1]: 30%
B3: SW:348-355 AAFFANLK (peptide)
peptide: AAFFANLK

B4: wild-type PKG Iα (cGMP-dependent protein kinase type Iα, full length) (protein)
chain: T1 sequence (looked up)
activation of PKG Iα (32P-incorporation assay, cGMP priming conditions) (SW:329-349): rendered a completely inactive SW-peptide derivative
Ka (activation of PKG Iα, 32P-incorporation assay) (SW:329-358): Ka=500 µM

— patent US20140037547A1 (UNIVERSITY OF VERMONT AND STATE AGRICULTURAL COLLEGE, published 2014)
